T1: GST::Bru (full-length Bruno fused to GST) (Drosophila, UniProt O02374 1-604)
T1 construct: Bruno (Bru; encoded by the aret gene), Drosophila; full-length bru cDNA subcloned into pGEX-2TK; Vector pGEX-2TK; source: E. coli CodonPlus, extract, immobilized on Glutathione Sepharose 4B
T1 sequence (looked up): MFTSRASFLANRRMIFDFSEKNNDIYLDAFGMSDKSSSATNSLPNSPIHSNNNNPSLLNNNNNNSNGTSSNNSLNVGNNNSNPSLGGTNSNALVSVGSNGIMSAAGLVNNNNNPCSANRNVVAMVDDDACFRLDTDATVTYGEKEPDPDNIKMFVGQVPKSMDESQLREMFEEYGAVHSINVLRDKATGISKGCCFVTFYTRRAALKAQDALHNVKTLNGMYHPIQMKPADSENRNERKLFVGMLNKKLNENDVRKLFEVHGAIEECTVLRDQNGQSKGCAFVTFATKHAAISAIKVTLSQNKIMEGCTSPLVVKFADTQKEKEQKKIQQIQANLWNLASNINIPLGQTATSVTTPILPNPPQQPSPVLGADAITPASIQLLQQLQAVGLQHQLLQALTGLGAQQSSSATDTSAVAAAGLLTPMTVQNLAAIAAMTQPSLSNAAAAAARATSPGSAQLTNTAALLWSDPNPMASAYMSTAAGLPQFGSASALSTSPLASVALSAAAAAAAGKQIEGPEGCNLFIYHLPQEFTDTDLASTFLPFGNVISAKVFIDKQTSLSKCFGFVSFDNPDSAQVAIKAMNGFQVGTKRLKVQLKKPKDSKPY


Target: T1, GST::Bru (full-length Bruno fused to …)
Assay: pull-down; GST::Bru, GST::Cup or GST immobilized on Glutathione Sepharose 4B from E. coli extract and washed; ~100 ng N-terminally His6-tagged Bru protein in 80 μl binding buffer (50mM Tris-Cl pH7.5, 150mM NaCl, 10% glycerol, 1mM DTT, 0.1% IGEPAL-CA-630), 2–3 hr at room temperature; Western blot with anti-His antibody
Settings: both partners purified

binding result | Binder
binds | His6::Bru Δ334–416 (natural protein, Drosophila, UniProt O02374 1-604, looked up, also called Bru lacking most of the linker domain between RRMs 2 and 3; source: E. coli, purified (Ni-NTA); not shown: His6, N-terminal, kept) MFTSRASFLANRRMIFDFSEKNNDIYLDAFGMSDKSSSATNSLPNSPIHSNNNNPSLLNNNNNNSNGTSSNNSLNVGNNNSNPSLGGTNSNALVSVGSNGIMSAAGLVNNNNNPCSANRNVVAMVDDDACFRLDTDATVTYGEKEPDPDNIKMFVGQVPKSMDESQLREMFEEYGAVHSINVLRDKATGISKGCCFVTFYTRRAALKAQDALHNVKTLNGMYHPIQMKPADSENRNERKLFVGMLNKKLNENDVRKLFEVHGAIEECTVLRDQNGQSKGCAFVTFATKHAAISAIKVTLSQNKIMEGCTSPLVVKFADTQKEKEQKKIQQIQAAAGLLTPMTVQNLAAIAAMTQPSLSNAAAAAARATSPGSAQLTNTAALLWSDPNPMASAYMSTAAGLPQFGSASALSTSPLASVALSAAAAAAAGKQIEGPEGCNLFIYHLPQEFTDTDLASTFLPFGNVISAKVFIDKQTSLSKCFGFVSFDNPDSAQVAIKAMNGFQVGTKRLKVQLKKPKDSKPY
binds | His6::Bru 1–146 (isolated amino-terminal domain) (domain or fragment, Drosophila, UniProt O02374 1-146, looked up, also called Bru amino-terminal domain; source: E. coli, purified (Ni-NTA); not shown: His6, N-terminal, kept) MFTSRASFLANRRMIFDFSEKNNDIYLDAFGMSDKSSSATNSLPNSPIHSNNNNPSLLNNNNNNSNGTSSNNSLNVGNNNSNPSLGGTNSNALVSVGSNGIMSAAGLVNNNNNPCSANRNVVAMVDDDACFRLDTDATVTYGEKEP
binds | His6::Bru (full-length Bruno, Bru+) (natural protein, Drosophila, UniProt O02374 1-604, looked up, Bruno (Bru; encoded by the aret gene), Drosophila; full-length Bru in pET-15b; Vector pET-15b; The tethered transgene proteins carry RRM2/RRM3 point mutations; source: E. coli, purified (Ni-NTA); not shown: His6, N-terminal, kept) MFTSRASFLANRRMIFDFSEKNNDIYLDAFGMSDKSSSATNSLPNSPIHSNNNNPSLLNNNNNNSNGTSSNNSLNVGNNNSNPSLGGTNSNALVSVGSNGIMSAAGLVNNNNNPCSANRNVVAMVDDDACFRLDTDATVTYGEKEPDPDNIKMFVGQVPKSMDESQLREMFEEYGAVHSINVLRDKATGISKGCCFVTFYTRRAALKAQDALHNVKTLNGMYHPIQMKPADSENRNERKLFVGMLNKKLNENDVRKLFEVHGAIEECTVLRDQNGQSKGCAFVTFATKHAAISAIKVTLSQNKIMEGCTSPLVVKFADTQKEKEQKKIQQIQANLWNLASNINIPLGQTATSVTTPILPNPPQQPSPVLGADAITPASIQLLQQLQAVGLQHQLLQALTGLGAQQSSSATDTSAVAAAGLLTPMTVQNLAAIAAMTQPSLSNAAAAAARATSPGSAQLTNTAALLWSDPNPMASAYMSTAAGLPQFGSASALSTSPLASVALSAAAAAAAGKQIEGPEGCNLFIYHLPQEFTDTDLASTFLPFGNVISAKVFIDKQTSLSKCFGFVSFDNPDSAQVAIKAMNGFQVGTKRLKVQLKKPKDSKPY

— PMC4344327, “Region-Specific Activation of oskar mRNA Translation by Inhibition of Bruno-Mediated Repression” (PLoS Genetics, 2015)
